According to US20240026019A1 (Innovent, published 2024):
Values belong to the binder of their own block, whether it stands above or below them.

Legend:
[1] = molecular target: T1, hTNFR2 protein (coated on the microplate in the blocking ELISA) (human, UniProt P20333 23-257); experiment: blocking ELISA: hTNFR2 coated on the plate, binding of biotinylated TNFα blocked by the antibody; unit taken from the axis Conc log(nM) [A]
T1 construct: The construct coated in the ELISA is not described (it may or may not be the immunogen, Sino biological 10417-H03H)
T1 sequence (looked up): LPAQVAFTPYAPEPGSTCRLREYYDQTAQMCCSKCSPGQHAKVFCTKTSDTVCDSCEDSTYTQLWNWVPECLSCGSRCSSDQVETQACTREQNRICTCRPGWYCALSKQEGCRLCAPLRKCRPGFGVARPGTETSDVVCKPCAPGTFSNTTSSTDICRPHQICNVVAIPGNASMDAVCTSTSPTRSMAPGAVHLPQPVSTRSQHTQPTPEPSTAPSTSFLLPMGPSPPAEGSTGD
Method: The hTNFR2 protein was resuspended and dissolved to a concentration of 2 μg/mL with PBS, and a microplate was coated with the protein and incubated overnight. The plate was blocked with 5% BSA for 1 h, and a biotinylated antigen (Recombinant Biotinylated TNFα protein (ACRO)) was diluted to 2 μg/mL and added to the plate at 10 μL/well. The antibodies prepared as described above (3C4, 69B1, and 72G8) were each diluted in a gradient starting from the maximum concentration of 300 nM for a total of 8 or 12 dilution gradients. The diluted antibodies were added at 100 μL/well and incubated in PBS on ice for 30 min. The antigen-antibody mixture was incubated in a microplate for 90 min and washed three times with PBS, and the supernatant was discarded. 100 μL of Avidin-HRP (Invitrogen) diluted at a 1:5000 ratio was added to each well, incubated at room temperature for 30 min, and washed six times with PBS. A TMB chromogenic solution (solarbio) was added to the plate at 100 μL/well for color development for 1 min, and the reaction was stopped by adding a stop buffer (solarbio) at 100 μL/well. The plate was read on a microplate reader at OD₄₅₀ and OD₆₂₀.
In a similar manner to that in Example 7, the ability of the humanized antibodies hz3C4.7, hz69b1.5, hz69b1.6, hz69b1.11, and hz69b1.20, and the control antibody OPI to block the binding of human TNFα to hTNFR2 was assayed by ELISA.

[2] = molecular target: T2, cynomolgus monkey TNFR2 overexpressed on CHO-S cells (CHOS-cTNFR2) (cynomolgus monkey, UniProt P20333 23-461 (human entry)); experiment: flow cytometry on CHO-S cells overexpressing cynomolgus monkey TNFR2 (chimeric antibodies), MFI-FL2-A; unit taken from the axis Conc log(nM)
T2 construct: also called cTNFR2 CHO-S
T2 chain: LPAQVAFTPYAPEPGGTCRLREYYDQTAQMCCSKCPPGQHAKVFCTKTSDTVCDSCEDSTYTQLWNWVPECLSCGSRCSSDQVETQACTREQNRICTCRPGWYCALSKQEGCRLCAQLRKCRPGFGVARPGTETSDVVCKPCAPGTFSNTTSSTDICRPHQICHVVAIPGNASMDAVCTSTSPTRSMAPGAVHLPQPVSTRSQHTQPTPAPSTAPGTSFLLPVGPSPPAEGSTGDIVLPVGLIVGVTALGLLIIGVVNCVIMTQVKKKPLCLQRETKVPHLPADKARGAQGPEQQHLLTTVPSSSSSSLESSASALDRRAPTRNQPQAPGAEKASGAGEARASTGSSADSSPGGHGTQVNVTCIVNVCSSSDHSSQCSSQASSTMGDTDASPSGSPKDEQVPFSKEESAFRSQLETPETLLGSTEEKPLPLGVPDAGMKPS
Method: (§1) In the study, the binding of the chimeric antibodies of the present invention, after being diluted in a gradient, to a stable CHO-S cell strain overexpressing human TNFR2 on the surface was assayed by using a flow cytometer. cDNAs encoding human TNFR2 (SEQ ID NO: 60) and cynomolgus monkey TNFR2 (SEQ ID NO: 61) were cloned into pCH01.0 vectors (Invitrogen), which were transfected into CHO-S cells (Invitrogen) to produce CHO-S cells overexpressing human TNFR2 (CHOS-hTNFR2) and CHO-S cells overexpressing cynomolgus monkey TNFR2 (CHOS-cTNFR2).
(§2) CHOS-hTNFR2 cells or CHOS-cTNFR2 cells were counted and diluted to 2×10⁶ cells/mL, and added to a U-bottom 96-well plate at 100 μL/well. The mixture was centrifuged at 300 g for 5 min, and the cell medium was removed. The dilutions of the samples (the chimeric antibodies 3C4, 69B1, and 72G8 and the positive control antibody OPI) (the antibodies were subjected to a three-fold serial dilution in PBS from the maximum antibody concentration of 300 nM) were added to the U-plate, and the cells were resuspended at 100 μL/well and left to stand on ice for 30 min. The suspension was centrifuged at 400 g for 5 min, and the supernatant was removed. The cells were washed twice with PBS. The mixture was centrifuged at 300 g for 5 min, and PBS was removed. […]

[3] = molecular target: T3, human TNFR2 overexpressed on CHO-S cells (CHOS-hTNFR2) (human, UniProt P20333 23-461); experiment: flow cytometry on CHO-S cells overexpressing human TNFR2 (chimeric antibodies), MFI-FL2-A; unit taken from the axis Conc log(nM)
T3 construct: also called hTNFR2 CHO-S; human TNFR2 molecule overexpressed on CHO-S cells
T3 sequence: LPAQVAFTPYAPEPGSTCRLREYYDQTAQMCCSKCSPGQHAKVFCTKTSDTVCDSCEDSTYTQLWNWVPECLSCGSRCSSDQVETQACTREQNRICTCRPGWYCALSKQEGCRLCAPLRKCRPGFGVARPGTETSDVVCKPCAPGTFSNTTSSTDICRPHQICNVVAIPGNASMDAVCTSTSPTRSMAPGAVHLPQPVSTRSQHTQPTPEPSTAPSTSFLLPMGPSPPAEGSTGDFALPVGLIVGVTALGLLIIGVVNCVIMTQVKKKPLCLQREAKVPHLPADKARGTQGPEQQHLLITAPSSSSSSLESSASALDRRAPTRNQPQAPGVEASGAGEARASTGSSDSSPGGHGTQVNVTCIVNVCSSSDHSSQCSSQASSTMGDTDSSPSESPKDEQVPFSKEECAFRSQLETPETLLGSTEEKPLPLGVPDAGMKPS
Method: as §1, §2

- IC50 [1]: 38.2 nM
B1: positive control antibody OPI (humanized antibody SBT-002e in WO 2017083525) (antibody, V domains shown)
VH: QVTLKESGPALVKPTQTLTLTCTFSGFSLSTSGMGVGWIRQPPGKALEWLAHIWWDDDKFYNPSLKSRLTISKDTSKNQVVLTMTNMDPVDTATYYCARLTGTRYFDYWGQGTTVTVSS
VL: DVQMTQSPSSLSASVGDRVTITCKASQDINKFIAWYQQKPGKAPKLLIHYTSTLQPGIPSRFSGSGSGRDYTFTISSLQPEDIATYYCLQYGNLWTFGGGTKVEIK
notes: also called Benchmark OPI

- EC50 [2]: 0.355 nM
- IC50 [1]: 24.2 nM
- EC50 [3]: 2 nM
B2: chimeric antibody 3C4 (antibody, human IgG1, kappa, V domains shown)
VH: QVQLQQSGPELVKPGASVTISCKASDYSFTNYYIHWVKQRPGQGLEWIGWIYPGNVITKYHEKFKGKAILTADTSSTTAYMQLNSLTSEDSAVYFCARSRATGYFDYWGQGTTLTVSS
VL: DIQMTQTTSSLSASLGDRVTISCRASQDIRNYLNWFQQKPDGTIKLLIYYTSRLHSGVPSRFSGSGSGTDYSLTISNLEQEDMATYFCQQFNTLPWTFGGGTKLEIKR

- EC50 [2]: 0.324 nM
- EC50 [3]: 3.14 nM
B3: chimeric antibody 69B1 (antibody, human IgG1, kappa, V domains shown)
VH: QIQLVQSGPELKKPGETVKISCKASGYTFTDYSMNWVKQAPGKGLKWMGWLNTETGEPIYADDFKGRFVFSLETSASTAYLEINNLNDEDTATYFCAREAIYYGTSYVLDYWGQGTSVTVSS
VL: DIVLTQSPASLAVSLGQRATISCRASESVEYYGTNFMQWYQQKPGQPPKLLIYSASNVESGVPARFSGSGSGTDFSLNIHPVEEDDIAVYFCQQSRKDPSTFGEGTNLEIKR
